# ± gives the standard deviation.
# Assay: protein stability index of a GFP-peptide fusion (GPS, HEK-293T) (PSI 1-6); higher = more stable
# Details: c terminus: a fixed tail appended
# 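Note: 24-mer peptide tiles fused after GFP, lentivirally expressed, FACS-sorted into six equal bins by GFP/DsRed ratio, decoded by Illumina sequencing, PSI is the read-weighted mean bin number.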
Sequence,protein stability index (treatment: DMSO),"protein stability index (treatment: MLN4924 1 uM, 8 h)"
GEQEHSQQKEEEEEMAVVPQGLFR [CHGA],5.45 ± 0.43,5.55 ± 0.28
PASQHSTPAGLPPSRAKPPTEGAG [FBF1],5.39 ± 0.3,5.293 ± 0.028
EIMLQYCFPRLDINVSKGINHLLK [PRIM1],2.18 ± 0.67,2.5 ± 0.47
AQMSTLHVSPPPSADPARGLPRSR [PDLIM4],4.79 ± 0.2,4.86 ± 0.13
WAMRRSYEAIAKHNQVEAAWLEGR [TRIM35],2.37 ± 0.12,2.73 ± 0.3
QNLQEEKERKLECLPPEPSPDDPE [FAF2],5.44 ± 0.37,5.46 ± 0.46
DPSKRALSRDTVQESYENVDSLES [ZNF263],5.51 ± 0.065,5.56 ± 0.18
PRAERKCPRIAPADSGRYRASPTR [ELOA2],4.47 ± 0.14,4.47 ± 0.26
MSGGPMGGRPGGRGAPAVQQNIPS [WAS],4.31 ± 0.35,4.62 ± 0.18
RIHTGERPYMCKECGKAFSQNSSL [ZNF8],2.84 ± 0.39,3.2 ± 0.74
GSDYVNANYIDGYRKQNAYIATQG [PTPRD],3.51 ± 1.2,3.46 ± 0.28
NFAVQHRYLFEEDNLLRSTQKLSH [MATN2],2.97 ± 0.24,2.85 ± 0.27
LDHCANRVLMYGSELDADHPGFKD [TPH1],4.62 ± 0.27,4.81 ± 0.057
GGLFVGKEGPMIHSGSVVGAGLPQ [CLCN6],3.39 ± 0.16,3.46 ± 0.44
MADSASESDTDGAGGNSSSSAAMQ [CCDC6],5.51 ± 0.08,5.38 ± 0.32
LEHRLNEMERTQAQLRDAVQSLQL [RASAL3],4.16 ± 0.51,4.22 ± 0.19
WLSANPCPHCGDRTFYDPEPILCP [PRAME],2.45 ± 0.19,2.69 ± 0.45
RICLGKFTFPGMSLDKRQGEGLRI [TPRG1],2.12 ± 0.19,2.08 ± 0.32
YGGGLGGGFGGGFAGGFVDFGACD [KRT13],2.39 ± 0.46,2.14 ± 0.67
YFKEAELKDLLLQVGRGLRYIHSM [WEE1],2.48 ± 0.8,2.15 ± 0.34
PPPPPPSRGGPPPPPPPPHNSGPP [WASL],5.28 ± 0.17,5.3 ± 0.2
YDTTLALGHAAAFSDDCDLPSAQD [GLT8D2],5.33 ± 0.2,5.31 ± 0.3
DCRVDLGSEVYRMLREPAEPVAAE [PDLIM4],4.67 ± 0.05,4.76 ± 0.092

Sequence,protein stability index (treatment: DMSO),"protein stability index (treatment: MLN4924 1 uM, 8 h)"
PDVIPLPHIYGARIKGVEVFCPLD [FAM189A2],2.55 ± 0.25,2.64 ± 0.14
MERPDKAALNALQPPEFRNESSLA [VMA21],4.77 ± 0.26,4.84 ± 0.088
AEMNRGSNEWKTVVGGAMFFIGFT [COX4I1],2.95 ± 0.91,3.18 ± 0.44
DCLEGKKSKHAPRGTHLWEFIRDI [ELF3],2.66 ± 0.2,2.66 ± 0.39
NLNEDDTFLVFSKAELGALPHDFI,2.82 ± 0.2,2.87 ± 0.16
VCQALAQVDGGANFSVDRWERKEG [CPOX],4.41 ± 0.14,4.1 ± 0.43
DVSLVGGPADCSPPHPAPAPQHPA [DYRK1B],5.02 ± 0.16,5.14 ± 0.12
PSGPPPPPPSVLGVGPVAPPPPPP [WASL],4.86 ± 0.21,4.89 ± 0.18
ADTEEPTKDPDVAFHGLSLGLSLT [PSD2],4.37 ± 0.25,4.44 ± 0.27
QTLKAMVQAWPFTCLPLGVLMKGQ [PRAME],2.65 ± 0.85,3.03 ± 0.38
ITPWTPSPSEKNSSFTWSVPSSGY [SMTNL2],2.72 ± 0.3,2.75 ± 0.34
EKEDAEKENIEKDEDDVDQELANI [SRPK2],5.62 ± 0.36,5.61 ± 0.31
SSVEDLKAKFCSTVANDVMLRTGL [NETO1],2.97 ± 0.14,3.07 ± 0.14
FKKGNRYIRCQKEVGKSFERHKLK [SMG5],2.75 ± 0.23,2.85 ± 0.14
KRALAEGAQIWCGEGVDKLSLPAR [ALDH8A1],3.58 ± 0.3,3.71 ± 0.17
PGGGAGMAAGFPYALRAYLGYQAV [CEBPB],2.71 ± 0.77,2.72 ± 0.41
ESQVFSEKLATDTSTFEATSEGTL [ZNF232],5.29 ± 0.13,5.15 ± 0.13
EDHLAVKHFSVEGQLEFRALLFIP [HSP90AB1],1.57 ± 0.54,
IRYQSFNNQSDLEKEMQKMNPYKI [PRIM1],3.07 ± 0.13,3.26 ± 0.28
ERSLRLQARYHDTPYKPPAGRAAA [MYORG],3.55 ± 0.31,4.15 ± 0.11
QYALELLTVYAWERGSMKTHFNTA [OAS1],3 ± 0.24,2.86 ± 0.43
KVTDHATTALLHYQLPQMPDVVVR [MED27],3.07 ± 0.19,3.28 ± 0.24
DSLPMDAYTHGCILHPELTVDSMI [GDAP1],3.29 ± 0.26,3.47 ± 0.11

Sequence,protein stability index (treatment: DMSO),"protein stability index (treatment: MLN4924 1 uM, 8 h)"
GCLAEAVSVIQSIPIFNETGRFSF [HACD3],2.91 ± 0.66,2.6 ± 0.77
GKNLYTNEYVAIKLEPIKSRAPQL [CSNK1G1],2.35 ± 0.032,2.58 ± 0.13
AARSGDAAANKLFHYIPGTDILDL [PLEKHN1],3.51 ± 0.39,3.35 ± 0.14
KPYKCTLCGENFSHRSNLIRHQRI [ZNF263],2.74 ± 0.51,3.43 ± 0.39
WTNQQKLYSRTGDIVEFVCKSGYH [CFHR2],2.46 ± 0.35,2.5 ± 0.33
CSVHYVSDSGDGVYAGRPLSVIQM [FBXO34],2.37 ± 0.78,2.75 ± 0.68
ELRGAEPGRPARLDQLLDMPAAGL [SPSB4],3.84 ± 0.46,4.02 ± 0.5
QNRYLDGMVRAHGVRVSVPCPSTT [BET1L],3.02 ± 0.37,3.21 ± 0.44
ERAHKGEKPYGCSECGKAFPRKSE [ZNF649],4.23 ± 0.12,4.7 ± 0.48
PRAAHACATVGNRGFVFGGRYRDA [KLHDC2],2.19 ± 0.19,2.12 ± 0.14
IETIKIIETEDQIDKKPVSEKTDE [MIA2],5.02 ± 0.39,4.7 ± 0.94
GSPVNQQPKKNNVMARTRLVVPNK [FAM219A],4.17 ± 0.1,4.33 ± 0.31
YTSGTTGIPKGVMLSHDNITWIAG [ACSBG2],2.37 ± 0.36,2.21 ± 0.31
EDQVVVNKAAVMVHQLSKKEASRH [CTNNB1],4.82 ± 0.25,4.8 ± 0.22
VKLMMSTLPKSLSLPTTAPSNSSS [MYBL2],3.24 ± 0.18,3.33 ± 0.24
KVLGRLRALSDTTEELTVIKSSLK [SLC2A12],2.58 ± 0.25,2.76 ± 0.28
NRKVSQRRVDFCKDPSAIGKKQVP [CASP6],4.04 ± 0.16,4.26 ± 0.22
EKQKQPRWREGTKDSHDPLPSWAE [PBXIP1],3.01 ± 0.51,3.18 ± 1.1
PLDFEAYSAAALQEAMKRLRGAKA [FCHO1],3.46 ± 0.25,3.62 ± 0.29
TRRHPGGSRVISHYAGQDATDPFV [FADS1],3.7 ± 0.33,3.86 ± 0.089
QAFRAIDRADYYLEEFKENAYKDL [PCMTD2],3.34 ± 0.15,3.17 ± 0.23
MPGDTDDAFPVHRVMMASASDYFK [KLHL13],3.66 ± 0.35,3.6 ± 0.13
DEAKKFHLRPELRSQMQGPRTRAR [KLHL12],4.8 ± 0.1,4.67 ± 0.42

Sequence,protein stability index (treatment: DMSO),"protein stability index (treatment: MLN4924 1 uM, 8 h)"
SHHHHQSRGACTSHDPQSSRGSRR [KCNA4],5.11 ± 0.26,5.13 ± 0.15
MGVSSVIHPKNPHAPTIHFNYRYF [CPOX],2.16 ± 0.35,2.12 ± 0.18
CHGMSSQLVRYSADGLLQLGPLGS [GALNT9],2.32 ± 0.3,2.12 ± 0.21
RFNQVLKNLLHAEFLRVQEERILH [VPS39],2.47 ± 0.81,2.46 ± 0.38
ENLKQQRSRREQFSRAPVSALPLA [STX5],3.74 ± 0.37,3.75 ± 0.17
EYQLNDSAAYYLNDLDRIAQPNYI [GNAI1],2.61 ± 0.15,2.79 ± 0.49
AETDEHTGANTKKPEDTAEDLTAK [FAM9B],5.74 ± 0.23,5.62 ± 0.12
MAVLKLTDQPPLVQAIFSGDPEEI [ANKRD44],3.37 ± 0.28,3.43 ± 0.21
RPHEVLLCSDLVKAYQRCVSAAHK [CHCHD6],2.64 ± 0.11,2.75 ± 0.61
EVASNTEMIQTSKTEITDLRRTMQ [KRT15],3.89 ± 0.21,4.27 ± 0.32
RGCSVKIWTAHYDPGHCFAESREL [ALG2],2.21 ± 0.26,2.11 ± 0.52
KSAHQTHSSWTPPNAQYWSQFHSV [DNAJC4],2.74 ± 0.28,2.67 ± 0.18
KRWQKNNWPKNSNGVTQKASAPTY [NANOGP8],3.39 ± 0.17,3.47 ± 0.21
DALMKEQLVEMTGLSPRVIRVWFQ [ISL2],2.27 ± 0.27,2.22 ± 0.12
TGESSEPEAKVLHTKRLYRAVVEA [SMG5],3.65 ± 0.33,3.63 ± 0.24
CTDSVVKYELMRPSNKAPLLVLCE [EHMT1],2.02 ± 0.26,2.22 ± 0.24
LGACVRTAVAQGGWRSLWLGWGPT [SLC25A39],2.07 ± 0.63,2.04 ± 0.16
NVGEISVSTRLTVLREDQIPRGFP [PTPRD],3.31 ± 0.54,3.44 ± 0.44
SNVKVETQSDEENGRACEMNGEEC [IKZF1],5.75 ± 0.27,5.25 ± 0.36
EEFAAGPAQSGILSDREVVNLFLH [BTBD1],3.16 ± 0.56,3.46 ± 0.22
KVENLTLKNHFQSVLEQLELQEKQ [TAF7L],3.54 ± 0.13,3.96 ± 0.094
